Experimental data from publication PMC7494283 (Cell, 2020).

Each binder was assayed against SARS-CoV RBD (SARS-CoV (human), isolate , UniProt P59594) (assay: ELISA).

| Binder | binding result |
| --- | --- |
| S2A4 mAb (IgG1) (antibody, V domains shown) VH: EVQLVESGGGLVQPGGSLRLSCAASGFTFSSYWMNWVRQAPGKGLEWVANIKQDGSEKYYVDSVKGRFTISRDNAKNSLFLQMNSLRAEDTAVYYCARVWWLRGSFDYWGQGTLVTVSS VL: NFMLTQPHSVSESPGKTVTISCTGSSGSIASNYVQWYQQRPGSAPTTVIYEDNQRPSGVPDRFSGSIDSSSNSASLTISGLKTEDEADYYCQSYDSSNHVVFGGGTKLTVL | no binding |
| S2H14 mAb (IgG1) (antibody, V domains shown) VH: not shown VL: NFMLTQPHSVSESPGKTVTISCTRSSGSIASNYVQWYQQRPGSSPTTVIYEDNQRPSGVPDRFSGSIDSSSNSASLTISGLKTEDEADYYCQSYDSSNQVFGGGTKLTVL | no binding |
| S304 mAb (IgG1) (antibody, V domains shown) VH: EVQLVESGGGLVQPGGSLRLSCAASGFTFSSYDMHWVRQTTGKGLEWVSTIGTAGDTYYPDSVKGRFTISREDAKNSLYLQMNSLRAGDTAVYYCARGDSSGYYYYFDYWGQGTLLTVSS VL: DIEMTQSPSSLSAAVGDRVTITCRASQSIGSYLNWYQQKPGKAPKLLIYAASSLQSGVPSRFSGSGSGTDFTLTISSLQPEDFAIYYCQQSYVSPTYTFGPGTKVDIK | binds |
